Values quoted from earlier work, collected in PMC5663392.

Target: FANCL RING (Homo sapiens) (UniProt Q9NW38)
UniProt Q9NW38, sequence (Q9NW38 304-366): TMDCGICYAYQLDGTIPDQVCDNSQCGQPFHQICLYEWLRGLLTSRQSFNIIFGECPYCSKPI

Kd: 0.5 µM
Substance: Ube2T (from UniProt Q9NPD8)
